What was measured:
[1] = Autosampler stability of calibrators and quality control samples; format: physicochemical; settings: stored in the autosampler at 10° C.
Description: The autosampler stability was evaluated using calibrators and quality control samples (LLOQ, mid-range and ULOQ using both pooled plasma and blank plasma calibrators). Duplicate curves were included with the batch. The first calibration curve was injected, then after 24 hours, the remaining quality control and calibration curve samples were injected. Both calibration curves were used to ascertain accuracy of pooled patient and blank plasma controls. The acceptability criteria is defined such that the standard curve back-fit data should be 80-120% at LLOQ, 85-115% at other concentrations of expected curve values. Mean accuracy of each quality control sample should be ≦±20% at the LLOQ and ≦±15% at all other levels.

[2] = Stock solution / internal standard solution storage stability; format: physicochemical

Row | Substance | Time stable in the autosampler [1] | Time stock solution is stable ([2]; frozen at −70° C.) | Time internal standard solution is stable ([2]; refrigerated at 4° C.)
1 | pGlu-His-Trp-Ser-Tyr-Gly-Leu-Arg-Pro-Gly-NH2 [GnRH] | 24 h | up to 376 days | 
2 | [(U-23C9, 15N)-Tyr5], [(U-23C6, 15N)-Leu7], [(U-19C5, 15N)-Pro9]-Gonadorelin [GnRH internal standard] |  |  | up to 51 days
